Source: publication PMC11910330, “Familial Alzheimer’s disease mutations in amyloid precursor protein impair calcineurin signaling to NMDA receptors” (The Journal of Biological Chemistry, 2024)

Columns and labels:
[1] = molecular target: APLP2 peptide (APLP2 core sequence in the PVIVIT peptide); assay: pull-down; biotinylated peptides (10 ug) precoupled to streptavidin-coated beads, incubated with 200 ng GST-CaN in 200 ul for 30 min at 4 C; PBS with 0.1% Tween-20 and 0.1% BSA, or 150 mM NaCl, 10 mM Hepes, 5 mM EDTA, pH 7.4 with 0.5% CHAPSO and 0.1% BSA; immunoblot with anti-CaN, normalised to a GST-CaN standard
[2] = molecular target: APLP1 peptide (APLP1 core sequence in the PVIVIT peptide); assay: as above

- percent lower CaN binding than the PVIVIT peptide [1]: 30%
- percent lower CaN binding than the PVIVIT peptide [2]: 80%
Substance: recombinant GST-tagged CaN A subunit (from UniProt Q08209 1-521) (enzyme)
